Experimental data from publication PMC6098011, “Insights into degradation mechanism of N-end rule substrates by p62/SQSTM1 autophagy adapter” (Nature Communications, 2018).
pKd: −log10 of the molar value.

What was measured:
[1] = target: MBP-fused PB1-ZZ of p62 (residues 1-181) wild type (human) (UniProt Q13501); assay: SPR; BIAcore 2000; MBP-PB1-ZZ WT or D69A immobilised on CM5; R-BiP N407 5-100 μM injected; 20 mM HEPES pH 7.5, 100 mM NaCl, 1 mM DTT
MBP-PB1-ZZ D69A (human) = MBP-PB1-ZZ D69A (human) (UniProt Q13501); assay: as above

## R-BiP N407 protein (from UniProt P11021 19-654) (domain or fragment)
[1]
  pKd: 4.69
MBP-PB1-ZZ D69A (human)
  pKd: 4.58
